Assay results published in the supplement of paper PMC10567573.

B1: PBXIP1 (parent)
chain: EKQKQPRWREGTKDSHDPLPSWAE

Variants of: B1
Assay: protein stability index of a GFP-peptide fusion (GPS, HEK-293T) (PSI 1-6); higher = more stable
Settings: c terminus: a fixed tail appended
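Also: lentivirally expressed fusions sorted by FACS into six bins by GFP to DsRed ratio, PSI derived from sequencing read proportions per bin multiplied by bin number.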

Protein stability index, by site and new letter:
P20: Y 1.75 | H 2.22 | N 1.88 | Q 2.45 | W 1.44 | K 2.66 | I 2.48 | A 2.13 | M 1.31 | D 1.79
R9: T 2.17 | A 1.79 | I 1.89 | W 1.66 | M 2.35 | L 2.48 | Q 1.34 | S 1.39 | H 1.04
D17: C 3.64 | S 1.86 | I 1.48 | L 1.58 | T 1.43 | E 1.39 | V 3.08 | Y 1.5
G11: S 2.61 | D 2.02 | E 1.15 | Y 1.98 | M 2.78
A23: M 3.36 | P 3.89 | N 4.99 | Y 4.24 | F 3.56 | T 2.08 | K 4.51 | L 4.81
Q3: C 2.21 | V 1.34 | W 1.41 | L 1.59 | Y 1.32 | N 2.58
P6: L 2.79 | A 1.3 | D 2.48 | F 2.43
E10: S 1.18 | K 2.34 | D 3 | W 1.53 | Q 1.83 | A 1.14 | L 1.96 | R 2.2 | F 2.27
W8: V 2.05 | K 2.46 | A 2.09 | C 2.31 | G 2.04
E1: Q 2 | M 1.7 | L 2.19 | R 2.19 | F 1.4 | K 2.33 | C 2.08 | I 2.16 | A 2.67
L19: E 3.44 | R 2.86 | S 1.77 | P 1.73 | H 2.63 | C 1.51 | D 1.99
R7: P 2.33 | H 2.05 | T 1.57 | A 1.59 | F 2.54 | N 3.14 | Y 1.47 | M 1.94 | W 2.53
Q5: P 1.68 | L 1.82 | E 2.66 | N 2.1 | R 2.57 | C 3.72 | H 2.11 | G 1.99
W22: R 5.4 | P 5.49 | E 5.99 | H 5.32 | T 5.07 | Y 4.85 | I 5.01 | L 3.24
H16: S 2.56 | P 2.26 | N 2.85 | W 1.37 | C 3.68 | D 2.05 | E 3.06
D14: Q 1.87 | Y 2.35 | K 2.66 | C 1.1
E24: P 4.12 | F 3.11 | H 3.29 | I 3.06 | D 1.9 | N 3.02 | Y 3.09 | L 3.02 | T 2.39 | M 3.16 | S 2.34
S15: N 1.63 | D 1.84 | A 2.65 | K 2.02
K4: G 1.89 | W 1 | M 1.54 | Q 1.92 | R 2.07 | Y 3
S21: K 1.75 | F 2.54 | T 2.62 | Y 3.67 | W 4.58 | D 4.6 | N 2.01
K13: Q 1.29 | V 1.52 | C 1.28
K2: Q 2.69 | S 2.15 | G 2.97 | W 1.43 | F 1.85 | N 1.46 | D 2.04 | H 1.66 | Y 2.81
P18: N 1.92 | S 1.29 | T 1.87 | Y 1.95 | V 3.04 | D 1.75
T12: L 2.31 | I 2.34 | M 2.69 | E 1.61 | A 2
